Each sequence was assayed on F1*sub RNA substrate (template-directed ligation) (assay: fraction ligated after 30 min (ligated reads / total reads); higher = more ligase activity; sequences stand for … in GAGACCGCAACTGAAAAGTTGT…AGTTCTGCACGTAGAAGCAAAAGGC). Settings: 42 °C.
Protocol: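 Chip-synthesised pool of F1* ligase ribozyme variants (all single and double substitutions, single, double and triple deletions in the catalytic core and GAA bulge, plus designed variants) was transcribed with T7 and reacted as a pool with excess substrate F1*sub for 30 min at 42 C in 50 mM EPPS pH 8.5, 25 mM MgCl2. Ligated and unligated bands were separated by PAGE, barcoded by RT and deep sequenced; fraction ligated = ligated reads / total reads per variant, relative activity = FL / FL of wild type (0.826). Sequences are the DNA template of the ribozyme.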

Row | Sequence | fraction ligated
1 | TATCACTTGCTAAGACACTTTGGATGGTTGA [3d1610] | 0.351
2 | TATCCTTGTCGTAAGACATTGGATGGGTTGA [3d1090] | 0.772
3 | TATCACTTGTCGTAAACACTTTGGAGGTTGA [3d2098] | 0.0433
4 | ATCACTTGTCGTAGACACTTTGGATGGGTTGA [2d12] | 0.789
5 | TATACTTGTCGTAAGACACTTTGGAGGGTTGA [2d86] | 0.0419
6 | ACACTTGTCGTAAGACATTTGGATGGGTTGA [3d38] | 0.484
7 | ATCACTTGTCGAAGACCTTTGGATGGGTTGA [3d189] | 0.75
8 | TATCACTTGCGTAAGACACTTTGGATGGGTT [3d1703] | 0.704
9 | TTACTTGTCGTAAGACCTTTGGATGGGTTGA [3d289] | 0.229
10 | TTCACTTGTTAAGACACTTTGGATGGGTTGA [3d387] | 0.775
11 | TATCACTTGTCGAAGACACTTTGAGGGTTGA [3d1966] | 0.0437
12 | TATCACTTGTCTAAGACACTTTGTGGGTTGA [3d1886] | 0.044
13 | TATCACTGTCGTAAGACACTTTGAGGGTTGA [3d1449] | 0.0155
14 | ATCCTTGTCGTAAGACACTTTGGTGGGTTGA [3d81] | 0.169
15 | TCATTGTCGTAAGACACTTTGGATGGGTTGA [3d4] | 0.164
16 | ATCACTTGTCGTAAGACCTTTGGTGGGTTGA [3d241] | 0.0169
17 | TATCACTGTCGTAAGACCTTTGGAGGGTTGA [3d1429] | 0.133
18 | TACATTGTCGTAAGCACTTTGGATGGGTTGA [3d555] | 0.041
19 | TTCACTTGCGTAAGACACTTGGATGGGTTGA [3d380] | 0.182
20 | TATACTGTCGTAAGACACTTTGGTGGGTTGA [3d791] | 0.0244
21 | TATCACTGTCAAGACACTTTGGATGGGTTGA [3d1358] | 0.817
22 | TCACTTGTCGTAAGACATTTGGATGGGTTGA [3d16] | 0.782

Row | Sequence | fraction ligated
23 | TATCCTTTCGTAAGACACTTGGATGGGTTGA [3d977] | 0.76
24 | TATCACTTGTGTAAGAACTTTGGATGGTTGA [3d1769] | 0.0688
25 | TATACTTGTCGTAAACCTTTGGATGGGTTGA [3d884] | 0.494
26 | TATCACTTGTCGAAGAACTTTGGATGGGTTA [3d1941] | 0.779
27 | TATCACTGTCGTAAAACTTTGGATGGGTTGA [3d1398] | 0.842
28 | TATCACTTGCGTAGACACTTTGGATGGGTTG [3d1638] | 0.816
29 | TATCACTTGTTAAGACACTTTGGATGGGTTG [3d1717] | 0.83
30 | TATCACTTGCGTAGCACTTTGGATGGGTTGA [3d1628] | 0.859
31 | TACATTGTCGTAAGACACTTTGATGGGTTGA [3d560] | 0.232
32 | TATACTTGTCGTAAGACACTTGGTGGGTTGA [3d927] | 0.049
33 | TATCACTTGTCGTAAGAACTTTGGTGGGTTA [3d2174] | 0.0479
34 | TATCACTTTCGTAACACTTTGGATGGGTTGA [3d1507] | 0.796
35 | TATCACTTGTCGTAAGACATTTGGTGGGTTG [3d2223] | 0.0154
36 | TATACTTTCGTAAGACCTTTGGATGGGTTGA [3d803] | 0.53
37 | TATCACTTGTCGTAGACATTTGGATGGGTTGA [2d226] | 0.842
38 | TATCACTTGTCGTAAGCACTTTGAGGGTTGA [3d2137] | 0.086
39 | ATCACTTTCTAAGACACTTTGGATGGGTTGA [3d125] | 0.753
40 | TATCACTTGTCGAAACACTTTGGAGGGTTGA [3d1921] | 0.0563
41 | TATCACTTTCGTAAGACACTTTGATGGGTTG [3d1573] | 0.731
42 | TATCACTTGCGTAAGACACTTTGGATGGTTG [3d1702] | 0.208
43 | TATCACTTTGTAAACACTTTGGATGGGTTGA [3d1467] | 0.823
44 | TATCACTTGTCGAAGACACTTTGGATGGGTTA [2d219] | 0.803

Row | Sequence | fraction ligated
45 | TACACTTGTCGTAAGACATTTGGTGGGTTGA [3d709] | 0.0505
46 | TATACTTGTCGTAAGACCTTTGGATGGTTGA [3d915] | 0.0819
47 | TATCACTTGTCGTAAGAACTTTGGTGGGTTGA [2d257] | 0.123
48 | TTCACTTGTCGTAGACCTTTGGATGGGTTGA [3d433] | 0.751
49 | TATCATTGTCGTAAGACACTTGATGGGTTGA [3d1270] | 0.779
50 | TATACTTCGTAAGACACTTTGGATGGGTTGA [3d778] | 0.724
51 | TATCACTTTCGAAGACACTTTGGTGGGTTGA [3d1501] | 0.0423
52 | TAACTTGTCGTAAGCACTTTGGATGGGTTGA [3d517] | 0.142
53 | TATCACTTGTCGTAAGACACTGATGGGTTGA [3d2232] | 0.0313
54 | ATCACTTGTCGTAAGCACTTTGATGGGTTGA [3d225] | 0.393
55 | TATCACTTGTCGTAAACACTGGATGGGTTGA [3d2081] | 0.787
56 | TATCACTTGTCGTAAGACACTTTATGGTTGA [3d2257] | 0.0255
57 | TACACTTGCGTAAACACTTTGGATGGGTTGA [3d605] | 0.036
58 | TATACTTGTCGTAGACACTTTGGATGGGTTG [3d882] | 0.232
59 | TCACTTGTCGTAAGACACTTTGGATGGTTGA [3d21] | 0.709
60 | TATCACTTGTGTAAGACATTTGGAGGGTTGA [3d1782] | 0.0398
61 | TATACTGTCGTAAGACCTTTGGATGGGTTGA [3d787] | 0.765
62 | TATCACTTGTCGTAAGCACTTGGAGGGTTGA [3d2131] | 0.072
63 | TATCACTTGTCTAAGACATTTGGATGGTTGA [3d1875] | 0.137
64 | TTCACTTGTCGTAAGACACTTTGGATGGTTG [3d505] | 0.681
65 | TTCATTGTCGAAGACACTTTGGATGGGTTGA [3d322] | 0.197
66 | TATCATGTCGTAAGACACTTTGGTGGGTTGA [3d1135] | 0.523

Row | Sequence | fraction ligated
67 | TATCACTTTCGTAAGACCTTTGATGGGTTGA [3d1548] | 0.786
68 | TATCACTTGTCGTAAGACACTTGGATGGGTT [3d2253] | 0.239
69 | TATCACTTGTCGAAGACACTTTGGGGGTTGA [3d1970] | 0.133
70 | ATCACTTGTCGTAAGACACTTTGGATGGGTTG [2d24] | 0.769
71 | TATCACTTTGTAAGACACTTTGGTGGGTTGA [3d1474] | 0.0671
72 | TATCACTTGCGTAAGAACTTTGGATGGGTTA [3d1665] | 0.604
73 | TATCACTTGTCGTAAGACACTTTGTGGTTGA [3d2261] | 0.0088
74 | TATATTGTCGTAAGCACTTTGGATGGGTTGA [3d766] | 0.411
75 | TATCACTTGTCGTAAGCACTTTGGATGGTTG [3d2149] | 0.17
76 | TATCACTTGTGTAAGACACTTTGGTGGGTTA [3d1801] | 0.0254
77 | TACACTGTCGTAAGACACTTGGATGGGTTGA [3d578] | 0.394
78 | TATCACTGTCGTAAGACATTTGGAGGGTTGA [3d1436] | 0.431
79 | TATCACTTGTGTAAGACCTTTGGATGGGTTA [3d1777] | 0.81
80 | ATCACTTTCGTAAGAACTTTGGATGGGTTGA [3d130] | 0.849
81 | TATCCTTGTCGAAGACATTTGGATGGGTTGA [3d1034] | 0.79
82 | TATCACTGTGTAAACACTTTGGATGGGTTGA [3d1346] | 0.845
83 | ATACTTGTCTAAGACACTTTGGATGGGTTGA [3d52] | 0.24
84 | TATCACTTGTGAAGACACTTTGGAGGGTTGA [3d1727] | 0.0789
85 | TACACTTGTCGTAAGACCTTTGGTGGGTTGA [3d702] | 0.138
86 | TATCACTGTCGTAAGACATTTGGATGGGTTA [3d1438] | 0.792
87 | TATCACTTGTCAAGACATTTGGATGGGTTGA [3d1815] | 0.829
88 | TATCACTGTCGTAAGACCTTTGGATGGTTGA [3d1430] | 0.628

Row | Sequence | fraction ligated
89 | ATCACTTGTCGTAAGAACTTTGGATGGTTGA [3d236] | 0.273
90 | TATACTTGTCTAAGCACTTTGGATGGGTTGA [3d846] | 0.779
91 | TATCCTTGCGTAAGACATTTGGATGGGTTGA [3d992] | 0.792
92 | TATCACTTGTCGTAAGACTTTGGATGGTTGA [3d2111] | 0.133
93 | TATCACTTGCGTAAGACCTTTGGATGGGTTG [3d1673] | 0.81
94 | TATCACTTGTCGTAAGACTTTGGAGGGTTGA [3d2110] | 0.0282
95 | TACACTTGTCGTAAGCACTTTGGAGGGTTGA [3d688] | 0.0515
96 | TATCCTTGTGTAAGACACTTTGGATGGGTTG [3d1014] | 0.745
97 | TATACTTGTCGTAAGAACTTTGGATGGGTTGA [2d80] | 0.786
98 | TATCCTTGTCGTAAGCATTTGGATGGGTTGA [3d1067] | 0.763
99 | TATCACTGTCGTAAGCCTTTGGATGGGTTGA [3d1409] | 0.815
100 | TACACTTGTCGTAAGACACTTTGAGGGTTGA [3d723] | 0.0442
101 | TATCACTTGTCTAAGACTTTGGATGGGTTGA [3d1846] | 0.786
102 | ATCACTGTCGTAGACACTTTGGATGGGTTGA [3d111] | 0.824
103 | TATCACTTGTCGAAGACCTTTGGAGGGTTGA [3d1946] | 0.198
104 | TCACTTTCGTAAGACACTTTGGATGGGTTGA [3d6] | 0.145
105 | TATCACTTGCGTAAGACATTTGGAGGGTTGA [3d1677] | 0.0596
106 | TATCACTTGCGTAAGACACTTTGGAGGGTTA [3d1699] | 0.122
107 | TATATTGTCGTAAGACACTTTGGATGGTTGA [3d774] | 0.0779
108 | TATCACTTGTCTAAGCACTTTGGATGGGTTG [3d1855] | 0.75

Source: the supplement of paper PMC6755084
